These results are taken from publication PMC11154964, “The Light Chain Allosterically Enhances the Protease Activity of Murine Urokinase-Type Plasminogen Activator” (Biochemistry, 2024).

In test [1] the target is protease domain (heavy chain) of murine urokinase-type plasminogen activator (muPA WT, after plasmin cleavage) (mouse (murine)) (UniProt P06869).
Test [2] addresses T1, protease domain (heavy chain) of murine urokinase-type plasminogen activator (muPA WT, after plasmin cleavage) (mouse (murine), UniProt P06869 180-433, C281 (122CT) disulfide-bonded to C149 (1CT) of the light chain).
T1 construct: Stood in the assay as one of the two chains of muPA WT or of its light-chain mutants; also called serine protease domain
Nature of the test: HDX-MS; two-chain muPA (light chain disulfide-bonded to the protease domain; WT 20 μM, F(−2)CTA 8.5 μM, K4CTG 13 μM) compared with No-Light-Chain muPA (10 μM); PBS pH 7.4, 22 °C, deuteration 0, 30, 60, 120, 600 s. The following applies: both partners purified.

The target in test [3] is T1, protease domain (heavy chain) of murine …. In words: cell-based or functional assay.

Ends that are not written are not given here.

T1 sequence (P06869 180-433): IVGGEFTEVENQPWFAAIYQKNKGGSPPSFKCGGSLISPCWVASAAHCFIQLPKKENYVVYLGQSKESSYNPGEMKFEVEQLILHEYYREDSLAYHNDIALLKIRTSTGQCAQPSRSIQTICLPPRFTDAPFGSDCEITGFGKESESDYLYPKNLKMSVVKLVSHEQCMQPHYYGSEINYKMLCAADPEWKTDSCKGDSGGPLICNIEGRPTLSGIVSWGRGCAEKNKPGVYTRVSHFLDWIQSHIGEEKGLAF
protease domain (heavy chain) of murine urokinase-type plasminogen activator (muPA WT, after plasmin cleavage) (mouse (murine)), sequence (P06869 180-433): as above

“light chain of muPA with the mutation F(−2CT)A (from UniProt P06869 153-179) (domain or fragment)”: in test [1], the kcat of the amidolytic activity (chromogenic substrate S2444) of two-chain muPA F(−2CT)A amounted to 12 s^–1.

B1: disordered light chain of murine urokinase-type plasminogen activator (muPA WT, after plasmin cleavage) (domain or fragment, mouse (murine), UniProt P06869 153-179, looked up)
chain: SLSKKPSSSVDQQGFQCGQKALRPRFK
modifications: not fully specified; also: disulfide to Cys281 of the protease domain chain, disulfide at 17, other end not in the chain
notes: Stood in the assay as one of the two chains of muPA WT (133-413), tethered to m2 by a disulfide bond; The construct has an N-terminal 6xHis-tag and a TEV protease cleavage site; also called disordered linker; light chain of muPA WT
In the case of B1, the binding result in test [2] is “binds”.

B2: light chain of muPA with the mutation K4CTG (domain or fragment, mouse (murine), UniProt P06869 153-179, looked up)
chain: SLSKKPSSSVDQQGFQCGQGALRPRFK
modifications: not fully specified; also: disulfide to Cys281 of the protease domain chain, disulfide at 17, other end not in the chain
Regarding B2, the “kcat of the amidolytic activity (chromogenic substrate S2444) of two-chain muPA K4CTG” value in test [3] was 22 s^–1.
